Reference: article PMC4040697 (Cell Death & Disease, 2014)

B1: His-tagged C-terminal domain of TRAF2 (residues 310–501) (domain or fragment, human, UniProt Q12933 310-501, looked up)
chain: DQDKIEALSSKVQQLERSIGLKDLAMADLEQKVLEMEASTYDGVFIWKISDFARKRQEAVAGRIPAIFSPAFYTSRYGYKMCLRIYLNGDGTGRGTHLSLFFVVMKGPNDALLRWPFNQKVTLMLLDQNNREHVIDAFRPDVTSSSFQRPVNDMNIASGCPLFCPVSKMEAKNSYVRDDAIFIKAIVDLTGL
B2: Dansylated TRAF2 (C-terminal domain, residues 310–501) (domain or fragment, human, UniProt Q12933 310-501, looked up)
chain: B1 chain
modifications: dansyl, mole ratio of dansyl/TRAF2 2 : 1; labelled residues not stated

Experiments:
[1] = target: T1, glutathione transferase P1-1 (GSTP1-1), native (UniProt P09211 1-210); experiment: ELISA
[2] = target: T1, glutathione transferase P1-1 (GSTP1-1), …; experiment: ELISA; remark: listed apart in the source
[3] = target: T1, glutathione transferase P1-1 (GSTP1-1), …; experiment: ELISA; remark: listed apart in the source
[4] = target: T1, glutathione transferase P1-1 (GSTP1-1), …; experiment: ELISA; remark: listed apart in the source
[5] = target: T1, glutathione transferase P1-1 (GSTP1-1), …; experiment: ELISA; remark: listed apart in the source
[6] = target: T1, glutathione transferase P1-1 (GSTP1-1), …; experiment: ELISA; remark: listed apart in the source
[7] = target: T1, glutathione transferase P1-1 (GSTP1-1), …; experiment: ELISA; remark: listed apart in the source
[8] = target: 'Oxidized' GSTP1-1 (oxidatively inactivated) (UniProt P09211 1-210, one intra-chain disulfide bond between cysteine 47 and 101); experiment: ELISA
[9] = target: T1, glutathione transferase P1-1 (GSTP1-1), …; experiment: other fluorescence titration
[10] = target: T1, glutathione transferase P1-1 (GSTP1-1), …; experiment: other fluorescence titration; remark: listed apart in the source

T1 sequence (P09211 whole entry): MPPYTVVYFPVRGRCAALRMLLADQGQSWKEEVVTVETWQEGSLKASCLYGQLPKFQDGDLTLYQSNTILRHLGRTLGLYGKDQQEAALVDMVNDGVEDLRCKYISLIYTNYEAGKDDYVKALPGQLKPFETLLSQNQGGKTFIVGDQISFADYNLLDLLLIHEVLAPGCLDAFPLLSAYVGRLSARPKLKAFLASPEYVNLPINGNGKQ
Chain of 'Oxidized' GSTP1-1 (oxidatively inactivated) (P09211 whole entry): as above

Row | Binder | Kd [1] | Kd [2] | Kd [3] | Kd [4] | Kd [5] | Kd [6] | Kd [7] | Kd [8] | Kd [9] | Kd [10]
1 | B1 | 930 nM | 490 nM | ≥ 5000 nM | 2700 nM | 1200 nM | 2600 nM | 290 nM | 1700 nM |  | 
2 | B2 |  |  |  |  |  |  |  |  | 4600 nM | 300 nM
